Laboratory results published in article PMC6030874.

Biological target: EGFP-MeCP2 R306C (mouse)

methylation-dependent transcriptional repression of a luciferase reporter (untagged MeCP2 e1 in Mecp2-/y, Mbd2-/- mouse tail fibroblasts), relative to WT MeCP2: 25 % of WT
Substance: NCoR1 (from UniProt O75376 1-2440) (natural protein)
